Reference: US20220010021A1 (Sanofi, published 2022)
Changes are numbered by the printed parent chain. Numbers in names are those of the source. One block for each binder: values may come before it.

Legend:
[1] = molecular target: human FGFR1c/KLB receptor complex on primary human adipocytes (human, UniProt P11362 22-822; Q86Z14 1-1044); test: cell-based or functional assay
[2] = molecular target: cell surface receptor composed of FGFR1c and co-receptor beta-Klotho (KLB) on iLite FGF21 Assay Ready Cells (human, UniProt P11362 22-822; Q86Z14 1-1044); test: cell-based or functional assay
Chain of cell surface receptor composed of FGFR1c and co-receptor beta-Klotho (KLB) on iLite FGF21 Assay Ready Cells (P11362 22-822, chain 1 of 2): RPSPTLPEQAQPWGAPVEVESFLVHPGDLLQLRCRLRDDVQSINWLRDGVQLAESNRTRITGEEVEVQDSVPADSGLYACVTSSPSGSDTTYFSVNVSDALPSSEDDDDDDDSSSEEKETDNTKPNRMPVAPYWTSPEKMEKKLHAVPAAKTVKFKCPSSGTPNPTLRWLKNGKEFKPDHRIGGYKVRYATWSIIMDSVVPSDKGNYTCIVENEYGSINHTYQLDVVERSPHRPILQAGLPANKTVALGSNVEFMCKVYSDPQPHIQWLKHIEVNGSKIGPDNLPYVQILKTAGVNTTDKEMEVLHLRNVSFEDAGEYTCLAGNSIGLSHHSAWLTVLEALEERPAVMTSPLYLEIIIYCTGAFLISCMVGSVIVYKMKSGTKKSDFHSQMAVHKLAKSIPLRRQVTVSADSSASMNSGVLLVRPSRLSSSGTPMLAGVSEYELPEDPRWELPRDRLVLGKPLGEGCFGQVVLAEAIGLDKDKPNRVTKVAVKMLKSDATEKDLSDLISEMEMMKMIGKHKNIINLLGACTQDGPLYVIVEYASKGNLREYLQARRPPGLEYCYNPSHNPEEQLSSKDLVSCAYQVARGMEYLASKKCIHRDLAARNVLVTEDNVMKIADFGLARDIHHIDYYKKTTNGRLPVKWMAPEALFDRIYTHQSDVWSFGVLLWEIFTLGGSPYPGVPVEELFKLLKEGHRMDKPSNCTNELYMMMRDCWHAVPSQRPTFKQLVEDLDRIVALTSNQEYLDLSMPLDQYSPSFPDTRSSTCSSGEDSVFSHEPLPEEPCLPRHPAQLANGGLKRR
Chain of cell surface receptor composed of FGFR1c and co-receptor beta-Klotho (KLB) on iLite FGF21 Assay Ready Cells (Q86Z14 whole entry, chain 2 of 2): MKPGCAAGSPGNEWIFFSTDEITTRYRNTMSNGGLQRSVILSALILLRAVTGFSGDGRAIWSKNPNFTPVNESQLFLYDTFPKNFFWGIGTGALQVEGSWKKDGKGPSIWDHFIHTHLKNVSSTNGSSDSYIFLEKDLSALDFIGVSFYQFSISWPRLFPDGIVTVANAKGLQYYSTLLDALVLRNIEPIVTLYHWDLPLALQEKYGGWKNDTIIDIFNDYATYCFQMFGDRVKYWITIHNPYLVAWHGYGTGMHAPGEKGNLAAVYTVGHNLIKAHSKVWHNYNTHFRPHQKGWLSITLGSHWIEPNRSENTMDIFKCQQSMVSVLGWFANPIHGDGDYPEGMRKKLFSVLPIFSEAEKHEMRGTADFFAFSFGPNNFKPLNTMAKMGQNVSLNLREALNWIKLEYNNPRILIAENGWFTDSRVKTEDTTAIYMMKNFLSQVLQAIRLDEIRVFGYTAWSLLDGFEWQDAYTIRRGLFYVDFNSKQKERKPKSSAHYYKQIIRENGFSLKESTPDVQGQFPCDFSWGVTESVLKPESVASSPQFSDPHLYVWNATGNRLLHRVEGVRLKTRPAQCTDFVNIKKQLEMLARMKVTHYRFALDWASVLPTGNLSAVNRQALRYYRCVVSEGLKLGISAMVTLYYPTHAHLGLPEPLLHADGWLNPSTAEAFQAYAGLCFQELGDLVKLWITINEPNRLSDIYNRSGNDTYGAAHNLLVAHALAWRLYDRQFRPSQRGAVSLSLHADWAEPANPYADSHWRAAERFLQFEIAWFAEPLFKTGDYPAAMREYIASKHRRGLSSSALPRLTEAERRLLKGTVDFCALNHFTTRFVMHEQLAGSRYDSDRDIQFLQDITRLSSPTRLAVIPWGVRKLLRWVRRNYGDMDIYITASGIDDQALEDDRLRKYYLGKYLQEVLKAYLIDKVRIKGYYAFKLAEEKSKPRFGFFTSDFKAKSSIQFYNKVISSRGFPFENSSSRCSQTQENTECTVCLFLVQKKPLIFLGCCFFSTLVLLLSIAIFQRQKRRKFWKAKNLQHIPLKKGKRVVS

[3] = molecular target: T1, human beta-Klotho (KLB) (human, UniProt Q86Z14 53-997); test: BLI off-rate screen
T1 construct: bought recombinant protein, analyte of the BLI off-rate screen; also called human KLB
T1 sequence (looked up): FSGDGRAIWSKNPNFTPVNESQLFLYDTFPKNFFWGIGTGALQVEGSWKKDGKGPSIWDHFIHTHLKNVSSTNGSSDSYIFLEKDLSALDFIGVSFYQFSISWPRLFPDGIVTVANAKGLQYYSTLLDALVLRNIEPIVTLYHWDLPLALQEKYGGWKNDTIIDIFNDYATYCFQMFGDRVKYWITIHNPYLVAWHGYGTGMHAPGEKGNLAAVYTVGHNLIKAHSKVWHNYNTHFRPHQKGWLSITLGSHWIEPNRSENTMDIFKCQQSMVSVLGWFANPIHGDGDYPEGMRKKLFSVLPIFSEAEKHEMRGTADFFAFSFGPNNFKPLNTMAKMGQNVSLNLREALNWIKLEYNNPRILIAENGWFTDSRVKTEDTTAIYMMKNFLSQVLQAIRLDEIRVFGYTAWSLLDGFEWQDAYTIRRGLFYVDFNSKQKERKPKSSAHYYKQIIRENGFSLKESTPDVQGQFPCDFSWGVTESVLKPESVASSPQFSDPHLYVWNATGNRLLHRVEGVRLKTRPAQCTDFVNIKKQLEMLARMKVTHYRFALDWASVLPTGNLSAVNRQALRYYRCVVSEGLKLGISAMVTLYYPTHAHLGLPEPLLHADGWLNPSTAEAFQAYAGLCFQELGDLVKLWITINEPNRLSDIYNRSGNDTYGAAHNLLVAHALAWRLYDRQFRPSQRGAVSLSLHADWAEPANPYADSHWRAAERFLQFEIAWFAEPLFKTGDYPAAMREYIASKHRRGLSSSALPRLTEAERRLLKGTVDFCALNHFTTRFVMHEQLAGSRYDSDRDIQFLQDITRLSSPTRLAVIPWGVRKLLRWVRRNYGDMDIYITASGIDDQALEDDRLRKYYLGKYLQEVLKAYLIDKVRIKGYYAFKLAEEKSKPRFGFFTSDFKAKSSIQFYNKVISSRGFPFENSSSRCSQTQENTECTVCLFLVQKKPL

Chain of human FGFR1c/KLB receptor complex on primary human adipocytes (P11362 22-822, chain 1 of 2): as the sequence (P11362 22-822, chain 1 of 2) above
Chain of human FGFR1c/KLB receptor complex on primary human adipocytes (Q86Z14 whole entry, chain 2 of 2): as the sequence (Q86Z14 whole entry, chain 2 of 2) above

B1: Ab0429 (antibody, human IgG1, lambda)
heavy: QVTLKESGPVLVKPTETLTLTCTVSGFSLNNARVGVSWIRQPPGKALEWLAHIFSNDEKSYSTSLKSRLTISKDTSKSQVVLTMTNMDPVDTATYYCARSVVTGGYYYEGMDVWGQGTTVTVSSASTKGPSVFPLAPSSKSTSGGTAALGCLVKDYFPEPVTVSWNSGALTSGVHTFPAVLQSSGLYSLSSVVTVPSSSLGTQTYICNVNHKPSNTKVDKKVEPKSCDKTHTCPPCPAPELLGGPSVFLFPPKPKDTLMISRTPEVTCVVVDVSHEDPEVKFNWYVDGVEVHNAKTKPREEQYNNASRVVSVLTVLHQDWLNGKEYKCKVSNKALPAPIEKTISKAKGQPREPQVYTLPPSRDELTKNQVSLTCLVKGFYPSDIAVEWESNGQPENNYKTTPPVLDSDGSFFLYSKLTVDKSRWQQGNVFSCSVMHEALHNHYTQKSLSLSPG
light: SYVLTQPPSVSVAPGQTARITCGGSNIGSESVHWYQQKPGQAPVLVVYSASDRPSGIPERFSGSNSGNTATLTISRVEAGDEADYYCQVWEGESDHVVFGGGTKLTVLGQPKANPTVTLFPPSSEELQANKATLVCLISDFYPGAVTVAWKADGSPVKAGVETTKPSKQSNNKYAASSYLSLTPEQWKSHRSYSCQVTHEGSTVEKTVAPTECS
In-Cell Western pERK EC50, primary human adipocytes [1]: 0.078 nmol/L

B5: 16H7 variant with light chain substitution Q88G (antibody, V domains shown)
VH: not shown
VL: SYVLTQPPSVSVAPGQTARITCGGNNIGSESVHWYQQKPGQAPVLVVYDDSDRPSGIPERFSGSNSGNTATLTISRVEAGDEADYYCGVWDGNSDHVVFGGGTKLTVLG
Mean E max [2]: 110%
Mean EC50 [2]: 0.129 nM
koff [3]: 0.00017 s⁻¹

B6: 16H7 variant with light chain substitution Q88M (antibody, V domains shown)
VH: not shown
VL: B5 VL with G88M
Mean E max [2]: 90%
Mean EC50 [2]: 0.104 nM
koff [3]: 9.9e-05 s⁻¹

Second part, the binder after the results:

In-Cell Western pERK EC50, primary human adipocytes [1]: 0.116 nmol/L
B2: Ab0430 (antibody, human IgG1, lambda)
heavy: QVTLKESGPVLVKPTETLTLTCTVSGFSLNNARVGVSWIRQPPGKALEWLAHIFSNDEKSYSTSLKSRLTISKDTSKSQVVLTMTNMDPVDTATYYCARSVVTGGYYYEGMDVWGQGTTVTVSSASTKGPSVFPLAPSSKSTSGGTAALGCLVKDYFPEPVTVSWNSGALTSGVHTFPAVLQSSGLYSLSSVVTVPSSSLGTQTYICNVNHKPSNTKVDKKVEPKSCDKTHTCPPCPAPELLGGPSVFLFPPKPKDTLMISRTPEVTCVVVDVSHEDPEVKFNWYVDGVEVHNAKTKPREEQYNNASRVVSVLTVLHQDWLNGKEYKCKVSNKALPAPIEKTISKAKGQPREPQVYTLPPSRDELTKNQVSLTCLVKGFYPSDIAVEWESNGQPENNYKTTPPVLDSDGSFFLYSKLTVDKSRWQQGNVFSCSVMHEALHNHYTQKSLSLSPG
light: B1 light with S49E, A50E

Mean E max [2]: 108%
Mean EC50 [2]: 0.133 nM
koff [3]: 0.00011 s⁻¹
B3: 16H7 variant with light chain substitution Q88A (antibody, V domains shown)
VH: not shown
VL: B5 VL with G88A

Mean E max [2]: 107%
Mean EC50 [2]: 0.134 nM
koff [3]: 9.9e-05 s⁻¹
B4: 16H7 variant with light chain substitution Q88L (antibody, V domains shown)
VH: not shown
VL: B5 VL with G88L
